Values of other authors in paper PMC7153410.
Read-outs that look alike come from different tables or passages of the source.

Legend:
MD-2 [1] = molecular target: MD-2 (UniProt Q9JHF9)
RAGE (Homo sapiens) [2] = molecular target: RAGE (Homo sapiens) (UniProt Q15109)
TLR4-MD-2 (Homo sapiens) [3] = molecular target: TLR4-MD-2 (Homo sapiens) (UniProt O00206)
RAGE (Homo sapiens) [4] = molecular target: RAGE (Homo sapiens) (UniProt Q15109); remark: listed apart in the source
TLR4-MD-2 (Homo sapiens) [5] = molecular target: TLR4-MD-2 (Homo sapiens) (UniProt O00206); remark: listed apart in the source
RAGE (Homo sapiens) [6] = molecular target: RAGE (Homo sapiens) (UniProt Q15109); remark: listed apart in the source
MD-2 [7] = molecular target: MD-2 (UniProt Q9JHF9); remark: listed apart in the source

UniProt Q15109, sequence (Q15109 23-404): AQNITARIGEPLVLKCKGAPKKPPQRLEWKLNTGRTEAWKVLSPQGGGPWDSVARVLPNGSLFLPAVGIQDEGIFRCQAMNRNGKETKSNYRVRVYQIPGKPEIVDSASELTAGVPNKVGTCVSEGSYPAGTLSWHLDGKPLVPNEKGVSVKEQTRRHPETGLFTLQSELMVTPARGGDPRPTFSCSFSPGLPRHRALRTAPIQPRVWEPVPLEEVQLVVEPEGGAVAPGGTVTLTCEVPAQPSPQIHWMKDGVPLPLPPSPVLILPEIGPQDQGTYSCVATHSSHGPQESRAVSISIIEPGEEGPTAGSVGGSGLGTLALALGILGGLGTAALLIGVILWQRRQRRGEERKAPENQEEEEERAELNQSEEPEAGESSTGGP
UniProt O00206, sequence (O00206 24-839, chain 1 of 2): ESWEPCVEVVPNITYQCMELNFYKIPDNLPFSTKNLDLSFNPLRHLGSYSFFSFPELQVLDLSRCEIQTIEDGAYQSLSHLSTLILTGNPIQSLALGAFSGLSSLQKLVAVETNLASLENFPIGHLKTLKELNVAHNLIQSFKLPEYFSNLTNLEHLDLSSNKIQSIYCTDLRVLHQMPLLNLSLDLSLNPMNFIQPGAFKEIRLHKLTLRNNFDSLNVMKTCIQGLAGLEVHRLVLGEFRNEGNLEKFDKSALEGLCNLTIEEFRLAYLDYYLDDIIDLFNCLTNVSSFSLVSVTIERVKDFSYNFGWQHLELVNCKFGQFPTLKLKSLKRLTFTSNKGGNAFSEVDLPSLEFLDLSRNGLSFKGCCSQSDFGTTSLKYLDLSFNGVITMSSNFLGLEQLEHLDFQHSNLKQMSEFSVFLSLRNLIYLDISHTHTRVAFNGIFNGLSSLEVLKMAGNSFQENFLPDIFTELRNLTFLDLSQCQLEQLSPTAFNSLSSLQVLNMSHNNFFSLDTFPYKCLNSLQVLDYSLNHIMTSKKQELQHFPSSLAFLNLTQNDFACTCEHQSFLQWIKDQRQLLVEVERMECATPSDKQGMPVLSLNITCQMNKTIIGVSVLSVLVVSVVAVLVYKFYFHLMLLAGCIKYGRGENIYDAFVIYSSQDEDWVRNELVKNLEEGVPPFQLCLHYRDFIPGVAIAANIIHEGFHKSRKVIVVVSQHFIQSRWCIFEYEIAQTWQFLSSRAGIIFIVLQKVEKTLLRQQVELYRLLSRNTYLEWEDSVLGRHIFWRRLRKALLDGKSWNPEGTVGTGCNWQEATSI
UniProt O00206, sequence (Q9Y6Y9 19-160, chain 2 of 2, further chain): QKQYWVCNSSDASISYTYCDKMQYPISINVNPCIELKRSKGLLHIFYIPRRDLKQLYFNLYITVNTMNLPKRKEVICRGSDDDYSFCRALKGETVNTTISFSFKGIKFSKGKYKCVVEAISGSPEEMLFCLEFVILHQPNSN
UniProt Q9JHF9, sequence (Q9JHF9 19-160): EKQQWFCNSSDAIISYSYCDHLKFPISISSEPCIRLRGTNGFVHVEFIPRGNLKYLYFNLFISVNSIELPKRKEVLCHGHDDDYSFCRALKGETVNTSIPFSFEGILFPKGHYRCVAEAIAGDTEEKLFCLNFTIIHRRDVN

In the case of S100A8 2-89 (from UniProt P27005), the Kd (MD-2 [1]) is given as 730 nM.
For S100A8-S100A9 (from UniProt P05109), the Kd (RAGE (Homo sapiens) [2]) is listed as 9.4 nM and the Kd (TLR4-MD-2 (Homo sapiens) [3]) is listed as 3.8 nM.
For S100A9 (from UniProt P06702), the Kd (RAGE (Homo sapiens) [4]) is listed as 38 nM and the Kd (TLR4-MD-2 (Homo sapiens) [5]) is listed as 2.1 nM.
In the case of S100A12 (from UniProt P80511), the Kd (RAGE (Homo sapiens) [6]) is listed as 90 nM.
For SAA3 43-57 (from UniProt P04918), the Kd (MD-2 [7]) is listed as 30000 nM.
